Test results from the DeepSol protein solubility set.

Test: soluble on expression in E. coli; label from the status in PepcDB or PDB records

Soluble on expression in E. coli, not soluble:
MGSDKIHHHHHHMDSEFANAVELSYECAPLLESLKEYSEKDIACFDVPGHVKNRGVAILNKYLGESLMKMDINSSPTMDNVSAPNGIIKNAQDLLAQAYMADEAFFITNGTTQAIHAMILSVIKPGEKVLLPRNIHKSVINALILCGGIPIFIQPEFDEKLGISLNITLEKVRTEIEKDCNIKALFFLNPTYYGVCADLESIIELCHKNNVLVLVDEAHGAHFPFHLDLPPSAISLGADMVAVSIHKTGGALTQSSALLLNRDNVSFEKVLQSINMLQSTSASYLLMASIDGARVNLVENGEKQLSKALNLSRYAKSKLNKIDGIKVLSTEILKQKGVKFIDETKLCINVKELNLTGFEVYDLLYKNFSIQVELGDSYNILALVSIGTNKSDIDRLVKALSIIAKVYRKESTLNEFNMVQINPIIKLNPREAFYAPKESVEINSCIDRICGESIMAYPPGIPIIAPGELITEEIMEYIIFLKNSNAYLTDVQDKNLDRILVIK, MGSDKIHHHHHHMDTSIKKKRVRGRLLREMIEDAAFEVIEKEGLAGFSMRKLAAALGCEAMSIYHHFPSVAHLHEALVDRLVGALEMPDASLPWRQRMRIAIEDFRSIGRDHPAYATFFVTYRMNSPICLAWLNGILSLFRDGGFDTELSARLFRAVGYYLMGAVLDENAGYAKGPSAVNTVSDEQLARDFPNVMAAGRFFGTAEFDKTFELGLDMLLDEMERLRDGADAGQLSGKV, MGSDKIHHHHHHMDWLSKHYQQQKGYDELVGEGAVPRLPAAPLFDYLSTLDSSELRARRQAADAAILAMGITFTVYSEAGDIDRAWPFDIIPRILSRREWMRIEEGLKQRLQALNLFIDDIYNAQRIVVDGVFPAEVLASSRNFREACRGVHPPFGVWAHICGSDLVRDADGTVYVLEDNLRVPSGVSYMLENRQIMKRLFPELFKSSTILPVDDYPNRLYDTLAALSPREGERPVVAVLTPGIYNSAYFEHSYLAQQMGAYLAEGADFFVSRDDIVYLRTISGPQRVDVIYRRIDDEYMDPEVFFTDSALGIPGLLRAWRRGTVAIANAPGAGVADDKVVYAFVPDIIRYYLGAEPILPNVPTYLCMREADRDYVLSHLHELVVKPANESGGYGMLIGPRATSEERGRFAELIAANPRNYIAQPTLNLSTAPTLVEDHLEARHLDLRPFILQADKLYVTTGGLTRVAMQPGSLVVNSSQGGGSKDTWIVDEEAPCFRA, MGSDKIHHHHHHMDYRKYFEKLKSDYVYLDNAATTPPLKSVMKKALEFLENYSSIHRGTGYLAKMSTDSYENSRRVIGEYLHATKDDVVVFTANTTDSINKFALLYPFMGNEGVLISDIEHSSNMLPWFKNSGRVKMFNTGKSNKINPYSIEEELYRNPQIKIVSICGASNLTGYLTPLRDIYKICKKYGVYLLVDASQIAPHFKITLDDCDFIAFSGHKMYAPFGAGVLAGRKDVLSHIGLAPTGGGNIVYIGKRGEVIYKEPPLSLEAGTPNGLGAVTVAEAMRVLNEDIGWENMNQHNKRINEIGYKYLSDLSNIKLYYPKDQDIRINRTPTFVFDFKNVGTKVGCDILKENKIGVRCGTFCLYRLIEKVKNIDEYERKRLYRNYIVPNRELPERYSLVRASAGLMTTEEDFLRLRAAIKKVE, MGSDKIHHHHHHMDYSSKDIKSIISEILDKKKAKGGVKSIYVVGCGGSLGALYPAKTFMEKECTSIKSAWINSSEFIHSTPKDFGVNSIICLACHKGNTPETIAAAKLGKEMGATVIILTWLKESEIIEFGDYIIRYTFDASPDHLKGDIDYSGEKTICALLVAVELLAQTEGYENYNKFYEGTKMISNIIKNARNHVAERAVKFAEKYKDDSVIYTMGSGASYGAAYMESICIFMEMQWLNSSSIHTGEYFHGPFEITDANRPFMIQISEGSTRDLDERALKFLNTYAKRIEVLDAKELGLSTIDASVVDYFNHSLFNNVYPIYNHELATKREHPLPTRRYMWKVEY, MGSDKIHHHHHHMECSGLYPRRNRSSHNQSEFQVSFMATELSALPANHPRVTFGKVGVLLVNLGTPDGTDYWPMRRYLAEFLSDKRVIEWSRLYWYPILYGIVLNKRPQKVGKAYEEIWNHERNESYLRTYTRSQGELMAAALKDFPNVVVDWAMRYGQPSIASRIDALKEQGCEKILLFPLYPQYAASTTATVNDKAFEHLMKLRWQPAIRTVPPYHDDPAYIEGLAASVKNHLATLDWEPEMLITSFHGIPQSYFKKGDPYYCHCQKTARLLREALGRTEKNFMITFQSRFGPEEWLQPYTDKTVEKLASEGIKRIAVMNPGFVSDCLETLEEIAGEAGEIFLHNGGEKFTHIPCLNDSTEGMNVLEKVVRRELQGWV, MGSDKIHHHHHHMEFTKKSKLKNMYVNMNVARMLSKINEYKGRQLLYKKQPKEILENLEKKSLVDCSESTYIGNQRDSSNFNLEKLISNEVTPRSREELSIVEYRDVVKTINSAYESIPISSQTILELHGYLYKFSSTRGGSYKSDNDFIEHNLKPSEFISTDSSVNKVEKAVEEICEAYNTLIEEDEIDILILISAFVLDFILIHPFKEGNIKMARVLILLLLNKNGYEVGRYISLGKIFDDSSYEYYSNLNYLKASIGSEKADMNAWIEYFLETILTAYEKLDDSLNISDKKRQTKTSRIEKIINSTLGYFTKEDIRDLCPDIPEPTINRVFNNLRKQDKIEVVARGRSAKWKKKY, MGSDKIHHHHHHMEHIEKLNAVLKHIKTSFVGKDEIIDLLGISLIARENAFLLGPPGTAKSAIIRALSACISDGKNFEYLLTRFTEPGELFGPFDIRKLKEGDLVTNTEGMMPEASMVFLDEIFNANSAILNSLLTALNERIFRRGKETKKLPALMFIGASNVLPEDESLNALLDRFLIRARCDYVDTDLLEEVLVAGWNLETRNQNQKPAIAPAEIIELQQYAKQVDVSTVRRQYVDLIHNLRNTGIKISDRRAVKIQNLLAASAVMSNRKEVIPSDLWVLKHVWDTEEQIEILEGIINTIIEKDTNPLAHPQAQYNKTPNAEELIKEIIQLTEKWESGNLSFEEQNVVKDKLRYLQTRSNWIKNNEHKLHIQEKIESLWHKMLQTI, MGSDKIHHHHHHMEIRPEMFGQARAGAAWPDFGKPHVLRCDTGRSALKLALQCWAGRAGRDFTVWLPHYVCHSVAQAVRQAGHALAYYGHRPSEQIFSPPPTPQAGDLVLLVHYFGLRNRAALDWLSAHATRDFAVLEDCVQSPYTAGVGRLADFAISSLRKWWPTPDGATLASVYALDGLDLAASDEAFISQRMAAKQLRARGIGEERYLQWIDESESRLDDVVPRQASWLAASLLGEADIDVAMAARRENWFALAQGLAGLRGVAPLFRELAVDEIPLAYPVVVSATNRQKLRAALRDRRVFCPVHWDLESDAPEADTLLSARILSIPLDQRYAPADMRKVASMIGEFIAEELN, MGSDKIHHHHHHMEKQNNHIDRRGFLKIVGISAATTTAALYGCGSGTKSSQGRNASSPVPTDQMTYRSVGGIKDKVSLLGYGCMRWPTVPSPEGKGDLINQEAVNELVDYAIAHGVNYFDTSPVYVQGWSEKATGIALKRHPREKLYIATKLSNFSNFSRENSLAMYHQSFKDMQVEYFDYYLLHAIGGGGMKVFNERYIDNGMLDFLLKEREAGRIRHLGWSFHGDVEVFDQVLAMHDTVKWDFVQIQLNYVDWRHATGNNVNAEYLYGELAKRNIAAVIMEPLLGGRLSNVPEHIVGRLKQRRPEDSVASWAFRFAGSPELVLTVLSGMTYMEHLQDNIRTYSPLVPLTDDDKEYLEETAQLMMQYPTIPCNDCKYCMPCPYGIDIPAILVHYNKCVNEGNIPQSQTSENYKEARRAFLVGYDRSVPKLRQASHCIGCNQCTPHCPQSIHIPEELHRIDRFVEQLKQGTL, MGSDKIHHHHHHMEMKMQQIDILRKLSEVWRLFGDMPDDTTLSVDLAALYLGISVKTLARYRQSGGGPSYIQYQSEGSQARNQRVNYLLKDLRSWRDNHKVSNTMHAAQVRGLAFDSLLDFCKPQPFWQVTDKSSSRDKSKILSHALTIPDDDFKKKLLEPNADIVWISIEEALFNEWQTADERQKWNDIFKEFLNEIISASNAAQEKHILNAILK, MGSDKIHHHHHHMENFVRNSKLNIEKEIKRIEQQPIALLERIKQIIDVIQTSLTLLKRAVAEYQFQNPEEEIQFFKVWKPQISGLLMFYIRLYQIEKNRVGKSLSAQCKYLKMELENIQKSFLNNSFYDYYRAGQTELDNQYFIRENYDILSDVHCHLLDRDSSFTTLHDSSVAMILANSHLIEYVSDEIDSLSDKLHLKFTSIVDSKLLQWTDSKVALVEFIYAIYAGKCFNNGNTSLKDIAFCCEILFNIEIGDFYRIFLEIRNRKKSRTQFLDKLKDKIQKMMEELDR, MGSDKIHHHHHHMENIMLQEIELKLAISPQIGIELPQYLAKFTILEHQNLFLGNTYYDYPDHFLAKQKMGLRIRQEDQELTLTLKTNGKVVSGLHSRPEYNLPLIEKETPTNAQLRGLYPFEQLPSSTLQPIFSTDFNRTFWLVEFQQSKIEVAFDQGKIIAGEYEQPISEIEFELKSGNVQDLFDFVETLPFERDIYFSSASKAKRGYLLGSKQFLTDWLNKWRDFLKEEREESAVDFCAKFNAVLKMEQKLLEETLSFSPTLFSQDFMKTVERVGAFFNLYHYYDENGKILEAMATEKQKETRLPALLESNQKIFVEIRDLIRFHSETKDNEKTIEKLTALLKSRVYFERMIKLMELSYDLG, MGSDKIHHHHHHMEQQIPFSYVIISPENATEKEGYMISTIDKCGFFFCQKGEVEVALNDKSYLISKGSVCIYMTGSLLRIQRISKDIKGIMLEVDLNYIIPIVNKIVNSENLLYLRENPCFSITEYQYNYLEQLIKALQQRMDIKAHDIPLQRQHLISELIKSWGQTLCYELLNVYFTNQPLKPLSQDKKDKIFQNFVITLFRYYQQERDVTFYASKQYLSSRYFSAVIKEKSGSTALQWIVQMVITEAKQLLENSDLTIKEIATKLNFPTQSFFGKYFKQYVGVSPKEYRNKQIRQLPF, MGSDKIHHHHHHMEQYKEVHINSLNKEELEKLAKMGQLIDVRTKEEYELGHINGSTLHPVEEIKSFNKNSNKTYYIHCKSGNRSTKACDYLAKQGYDVVNLKGGYKDYEAKNFNSAPLIEKDIEIKENRKQFDFRGLQCPGPIVNISKEINNISTGEQIEVTVTDPGFNSDIKSWAKQTGNTLVNLTEEANVINAIIQKEKPKEFEINDTATGTTIVLFSGELDKAVAAMIIANGAKAAGKDVTIFFTFWGLNALKKAQSTRVKKKGISKMFDLMLPKDPIHMPLSKMNMFGLGNIMMRYVMNKKNVDSLYSLIDQAIDQDIKLIACTMSMDVMGISKEELRDEVDYGGVGTYIGHTEQANHNLFI, MGSDKIHHHHHHMERIDEILSQLTTEEKVKLVVGVGLPGLFGNPHSRVAGAAGETHPVPRLGIPAFVLADGPAGLRINPTRENDENTYYTTAFPVEIMLASTWNRDLLEEVGKAMGEEVREYGVDVLLAPAMNIHRNPLCGRNFEYYSEDPVLSGEMASAFVKGVQSQGVGACIKHFVANNQETNRMVVDTIVSERALREIYLKGFEIAVKKARPWTVMSAYNKLNGKYCSQNEWLLKKVLREEWGFDGFVMSDWYAGDNPVEQLKAGNDMIMPGKAYQVNTERRDEIEEIMEALKEGKLSEEVLDECVRNILKVLVNAPSFKGYRYSNKPDLESHAEVAYEAGAEGVVLLENNGVLPFDENTHVAVFGTGQIETIKGGTGSGDTHPRYTISILEGIKERNMKFDEELASTYEEYIKKMRETEEYKPRTDSWGTVIKPKLPENFLSEKEIKKAAKKNDVAVVVISRISGEGYDRKPVKGDFYLSDDELELIKTVSKEFHDQGKKVVVLLNIGSPIEVASWRDLVDGILLVWQAGQEMGRIVADVLVGKINPSGKLPTTFPKDYSDVPSWTFPGEPKDNPQRVVYEEDIYVGYRYYDTFGVEPAYEFGYGLSYTKFEYKDLKIAIDGETLRVSYTITNTGDRAGKEVSQVYIKAPKGKIDKPFQELKAFHKTKLLNPGESEEISLEIPLRDLASFDGKEWVVESGEYEVRVGASSRDIRLRDIFLVEGEKRFKP
